Test results as given in article PMC1626108.

Columns and labels:
[1] = target: T1, Recombinant Cox11, purified (mouse) (UniProt Q6P8I6)
T1 sequence (Q6P8I6 whole entry, looked up): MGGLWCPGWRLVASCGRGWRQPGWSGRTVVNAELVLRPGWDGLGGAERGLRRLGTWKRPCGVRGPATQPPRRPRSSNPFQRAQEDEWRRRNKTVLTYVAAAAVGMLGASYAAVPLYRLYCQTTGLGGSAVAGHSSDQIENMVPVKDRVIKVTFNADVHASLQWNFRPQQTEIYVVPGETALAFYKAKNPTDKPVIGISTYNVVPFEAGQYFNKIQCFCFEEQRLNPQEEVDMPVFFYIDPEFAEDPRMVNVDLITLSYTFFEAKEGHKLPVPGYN

[2] = target: Hexokinase type I (HKI) (UniProt P17710)
Sequence of UniProt P17710 (P17710 other isoform, or with tags, fused parts or gaps): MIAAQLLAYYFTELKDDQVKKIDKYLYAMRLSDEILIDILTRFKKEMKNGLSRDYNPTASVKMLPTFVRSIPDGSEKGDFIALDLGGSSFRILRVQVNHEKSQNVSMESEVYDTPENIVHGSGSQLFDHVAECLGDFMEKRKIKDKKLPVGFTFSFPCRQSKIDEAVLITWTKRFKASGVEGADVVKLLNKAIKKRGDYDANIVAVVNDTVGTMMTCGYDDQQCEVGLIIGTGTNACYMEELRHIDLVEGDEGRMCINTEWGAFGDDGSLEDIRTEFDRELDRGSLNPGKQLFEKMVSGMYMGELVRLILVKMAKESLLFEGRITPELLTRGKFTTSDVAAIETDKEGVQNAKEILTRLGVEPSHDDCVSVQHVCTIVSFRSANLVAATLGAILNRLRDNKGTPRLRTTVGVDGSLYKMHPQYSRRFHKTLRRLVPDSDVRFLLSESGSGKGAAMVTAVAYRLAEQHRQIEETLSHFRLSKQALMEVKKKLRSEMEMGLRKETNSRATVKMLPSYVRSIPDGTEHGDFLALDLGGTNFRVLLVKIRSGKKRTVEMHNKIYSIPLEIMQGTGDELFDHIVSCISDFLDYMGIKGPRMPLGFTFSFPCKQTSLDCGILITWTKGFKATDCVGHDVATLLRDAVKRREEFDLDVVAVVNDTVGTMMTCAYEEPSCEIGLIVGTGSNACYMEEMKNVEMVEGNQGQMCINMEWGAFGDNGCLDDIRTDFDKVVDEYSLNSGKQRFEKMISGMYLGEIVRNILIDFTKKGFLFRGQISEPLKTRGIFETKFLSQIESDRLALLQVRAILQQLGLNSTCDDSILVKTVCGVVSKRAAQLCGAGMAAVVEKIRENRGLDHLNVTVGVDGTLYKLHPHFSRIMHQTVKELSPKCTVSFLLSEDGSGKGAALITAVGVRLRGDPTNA

Substance	reversal by increasing LD of the inhibition of HKI activity by 7.5 nM Cox11 at saturating glucose; half-maximal effect [1]	HKI enzymatic activity (initial rates versus glucose, 0.24 ug HKI) with 0.25, 7.5 and 15 nM Cox11; concentration of Cox11 at which no activity was recorded [2]
GST-LD, leucine-rich domain of RanBP2 fused to glutathione S-transferase (from UniProt P49792 62-711) (domain or fragment)	0.05 nM	
Recombinant Cox11, purified (from UniProt Q6P8I6 75-275) (natural protein)		15 nM
